The values that follow come from paper PMC5629633.

The subject of the data set is NC(=O)CC[C@H](N)C(=O)O. Nature of the data set: purified protein. The note with it: pH 8.0, 30 °C, 11 mM MgCl2, co-substrate ATP.

The Km is the substrate concentration at which the rate is half of its maximum.

As for “Cj1418 (L-glutamine kinase) (Campylobacter jejuni subsp. jejuni NCTC 11168 = ATCC 700819)”, the Km was 640 ± 60 µM.
